The numbers were not newly measured in article PMC12017986, which cites them from elsewhere.

Where two headings read alike, the source gives them in different places.

Series [1] concerns the target Dynein intermediate chain (IC) (Drosophila melanogaster) (UniProt Q24246).
Series [2] shares this target. This is another data set of the same source.
Series [3] has as its target Swallow (Drosophila melanogaster) (UniProt P40688).
Sequence of UniProt P40688 (P40688 whole entry): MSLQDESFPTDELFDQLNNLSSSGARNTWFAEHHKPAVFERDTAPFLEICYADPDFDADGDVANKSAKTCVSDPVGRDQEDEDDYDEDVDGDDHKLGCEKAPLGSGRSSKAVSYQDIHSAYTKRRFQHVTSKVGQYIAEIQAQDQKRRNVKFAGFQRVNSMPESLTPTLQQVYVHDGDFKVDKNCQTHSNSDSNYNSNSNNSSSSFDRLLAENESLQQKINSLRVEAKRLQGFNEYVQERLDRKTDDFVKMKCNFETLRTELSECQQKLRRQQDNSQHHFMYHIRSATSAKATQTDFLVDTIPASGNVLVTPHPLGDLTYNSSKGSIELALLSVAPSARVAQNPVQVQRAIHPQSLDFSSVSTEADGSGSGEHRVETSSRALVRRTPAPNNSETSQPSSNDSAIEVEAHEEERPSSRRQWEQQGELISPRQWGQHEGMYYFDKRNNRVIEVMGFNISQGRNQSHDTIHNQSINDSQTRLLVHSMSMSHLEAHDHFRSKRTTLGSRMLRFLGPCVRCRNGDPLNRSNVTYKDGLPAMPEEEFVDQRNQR

Sequence of UniProt Q24246 (Q24246 whole entry): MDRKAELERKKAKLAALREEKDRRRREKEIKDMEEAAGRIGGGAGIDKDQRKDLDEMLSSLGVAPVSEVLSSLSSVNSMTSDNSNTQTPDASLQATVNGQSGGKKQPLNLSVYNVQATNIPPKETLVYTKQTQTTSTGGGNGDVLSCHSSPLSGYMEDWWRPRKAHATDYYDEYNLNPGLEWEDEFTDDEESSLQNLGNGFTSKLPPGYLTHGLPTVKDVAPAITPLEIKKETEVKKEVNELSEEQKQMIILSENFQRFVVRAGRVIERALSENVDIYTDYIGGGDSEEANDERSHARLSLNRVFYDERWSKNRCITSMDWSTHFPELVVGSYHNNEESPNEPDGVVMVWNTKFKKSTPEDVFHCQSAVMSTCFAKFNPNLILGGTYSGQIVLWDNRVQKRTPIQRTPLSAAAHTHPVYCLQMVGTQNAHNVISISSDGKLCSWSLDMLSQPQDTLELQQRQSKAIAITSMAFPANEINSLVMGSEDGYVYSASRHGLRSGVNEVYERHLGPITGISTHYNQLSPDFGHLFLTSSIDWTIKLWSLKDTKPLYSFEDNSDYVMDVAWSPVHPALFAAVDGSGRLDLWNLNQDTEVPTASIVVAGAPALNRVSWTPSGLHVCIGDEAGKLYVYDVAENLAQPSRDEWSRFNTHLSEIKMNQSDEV

LC8 (from UniProt Q24117): the results for the Kd in series [1], in series [2] and in series [3] were 130 nM, 8000 nM and 200 nM, respectively.

By Kd is commonly meant the free concentration of one partner at which half of the binding sites on the other are occupied at equilibrium, for simple one-to-one binding.
